Assay [1] addresses rhBMP-2 (Homo sapiens) (UniProt P12643). The settings on record: cited from earlier work.
Assay [2] addresses Recombinant human transforming growth factor-β1 (TGF-β1) (human) (UniProt P01137). Briefly: SPR; Biacore T-100, CM5 chip, amine coupling, HBS-EP running buffer; TGF-β immobilised as ligand, Spp24 proteins as analytes; five concentrations of each analyte; kinetic constants by the manufacturer's software. Background: Surface plasmon resonance follows binding to a sensor surface in real time, without labels.

Assay [3] deals with rhBMP-2 (Homo sapiens) (UniProt P12643). The conditions noted are these: cited from earlier work. The source holds these as a separate data set.
Chain of rhBMP-2 (Homo sapiens) (P12643 283-396): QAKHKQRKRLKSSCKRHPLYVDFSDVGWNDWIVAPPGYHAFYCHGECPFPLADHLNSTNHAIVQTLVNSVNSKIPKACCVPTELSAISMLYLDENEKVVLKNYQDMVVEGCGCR
In another assay the target is TGF-β1 (Homo sapiens) (UniProt P01137). The settings on record: cited from earlier work.
Chain of TGF-β1 (Homo sapiens) (P01137 279-390): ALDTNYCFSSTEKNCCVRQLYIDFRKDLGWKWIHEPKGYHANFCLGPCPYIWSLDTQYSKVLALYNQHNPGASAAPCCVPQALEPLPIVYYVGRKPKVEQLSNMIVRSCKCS
The target in the next assay is rhTGF-β (Homo sapiens) (UniProt P01137). Briefly: SPR. The conditions noted are these: cited from earlier work.
Chain of rhTGF-β (Homo sapiens) (P01137 279-390): as above
For assay [4], the target named is rhOP-1 (BMP-7) (Homo sapiens) (UniProt P18075). The assay can be described thus: SPR. The conditions noted are these: cited from earlier work.
Chain of rhOP-1 (BMP-7) (Homo sapiens) (P18075 293-431): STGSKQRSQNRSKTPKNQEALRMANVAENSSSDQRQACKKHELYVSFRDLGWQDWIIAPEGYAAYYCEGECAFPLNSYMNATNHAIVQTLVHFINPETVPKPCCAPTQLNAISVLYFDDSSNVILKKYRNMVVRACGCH
In assay [5] the target is rhBMP-2 (Homo sapiens) (UniProt P12643). Briefly: SPR. The settings on record: cited from earlier work.

Read-outs that look alike come from different tables or passages of the source.

Chain of Spp16.0, C-terminal truncation product of Spp24 (domain or fragment) (Q27967 24-203): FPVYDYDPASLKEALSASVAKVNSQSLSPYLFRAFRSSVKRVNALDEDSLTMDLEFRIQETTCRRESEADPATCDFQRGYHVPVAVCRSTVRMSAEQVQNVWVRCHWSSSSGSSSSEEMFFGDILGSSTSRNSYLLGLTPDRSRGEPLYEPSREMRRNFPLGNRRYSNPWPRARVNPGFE
Chain of Spp18.1, C-terminal truncation product of Spp24 (domain or fragment) (Q27967 24-203): as above
Chain of Spp14.5, C-terminal truncation product of Spp24 (domain or fragment) (Q27967 24-203): as above
Chain of Recombinant human transforming growth factor-β1 (TGF-β1) (human) (P01137 279-390): as the sequence (P01137 279-390) above
Chain of fetuin TRH1 peptide (P12763 114-133): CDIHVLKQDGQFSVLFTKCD

Turning to Spp24 TRH1 peptide (BBP), the Kd in the assay with rhBMP-2 (Homo sapiens) [1] is 30000 nM.

For “Spp18.1, C-terminal truncation product of Spp24 (domain or fragment)”, in assay [2], the equilibrium dissociation constant (Kd) came out at 1390 nM, the koff came to 0.0106 s⁻¹ and the kon came out at 10000 M⁻¹ s⁻¹.

Consider fetuin TRH1 peptide, for which the values for the dissociation constant Kd with rhBMP-2 (Homo sapiens) [3] and in the assay with TGF-β1 (Homo sapiens) were 2400 nM and above 10000 nM, respectively.

For the substance “BMP Binding Peptide (BBP) TRH1 domain (from UniProt Q27967)”, the Kd with rhTGF-β (Homo sapiens) was 68 nM; in assay [4], 11.6 nM; with rhBMP-2 (Homo sapiens) [5] it was 53.3 nM.

For “Spp16.0, C-terminal truncation product of Spp24 (domain or fragment)”, in assay [2], the Kd came to 3250 nM, the koff worked out at 0.0122 s⁻¹ and the kon stood at 5550 M⁻¹ s⁻¹.

Regarding “Spp14.5, C-terminal truncation product of Spp24 (domain or fragment)”, in assay [2], the Kd is 1410 nM, the koff stood at 0.00589 s⁻¹ and the kon worked out at 4180 M⁻¹ s⁻¹.

As a reminder, the Kd is the free concentration of one partner at which half of the binding sites on the other are occupied at equilibrium, for simple one-to-one binding. The term koff denotes the first-order rate constant of dissociation. The kon is a measure of how fast the partners come together.
